According to patent US20080207488A1, “Method for Detecting Peptides Comprising a Cross-B Structure” (priority 2005, published 2008):

How the values were obtained:
[1] = molecular target: T1, factor XII (Homo sapiens, UniProt P00748); test: ELISA, binding of β2GPI to immobilized factor XII
T1 construct: purchased Calbiochem, EMD Biosciences #233490
T1 sequence (P00748 20-615): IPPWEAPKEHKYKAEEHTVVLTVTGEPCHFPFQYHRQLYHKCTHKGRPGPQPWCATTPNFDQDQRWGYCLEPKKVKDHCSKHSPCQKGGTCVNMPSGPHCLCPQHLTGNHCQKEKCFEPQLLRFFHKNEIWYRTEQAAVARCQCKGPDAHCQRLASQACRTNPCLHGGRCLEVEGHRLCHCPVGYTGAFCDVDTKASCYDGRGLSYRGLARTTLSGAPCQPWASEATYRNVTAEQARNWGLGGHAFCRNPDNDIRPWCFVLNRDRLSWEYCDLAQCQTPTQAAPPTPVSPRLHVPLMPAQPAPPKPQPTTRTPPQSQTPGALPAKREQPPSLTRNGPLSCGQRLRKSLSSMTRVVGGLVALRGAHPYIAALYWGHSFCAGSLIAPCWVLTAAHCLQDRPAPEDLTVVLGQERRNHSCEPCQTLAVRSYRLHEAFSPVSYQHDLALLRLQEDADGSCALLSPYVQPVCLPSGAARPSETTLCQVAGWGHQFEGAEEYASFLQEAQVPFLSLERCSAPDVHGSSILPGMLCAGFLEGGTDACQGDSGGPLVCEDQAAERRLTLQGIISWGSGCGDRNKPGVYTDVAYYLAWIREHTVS
Experimental: (§1) Binding of purified human factor XII from plasma (Calbiochem) or of purified recombinant human tPA to β2GPI purified from human plasma, or to recombinant human β2GPI was tested in an ELISA. Ten μg of factor XII or tPA in PBS was coated onto wells of a Costar 2595 ELISA plate (Cambridge, USA) and incubated with concentration series of the two β2GPI preparations. Binding of β2GPI was assessed with monoclonal antibody 2B2^13.

[2] = ThT fluorescence of β2GPI with or without CL vesicles or DXS500k; type: physicochemical; conditions: 25 μg ml^−1 β2GPI, 100 μM CL vesicles or 250 μg ml^−1 DXS
Experimental: ThT fluorescence of β2GPI was measured as follows. […] CL vesicles were prepared according to an established procedure. Briefly, CL was dried under a stream of nitrogen. The lipids were resuspended to a concentration of 10 mg ml^−1 in 25 mM Tris-HCl, pH 7.3, 150 mM NaCl by vigorous agitation, using a vortex. In the ThT fluorescence assay, fluorescence of β2GPI in buffer, of CL or DXS500k in buffer, of buffer and ThT alone, and of β2GPI-CL adducts and β2GPI-DXS500k adducts, with or without ThT, was recorded as described above (section ThT fluorescence). In addition, TEM images were recorded with CL, β2GPI from human plasma, with or without CL, and with recombinant β2GPI, as described^1.

[3] = molecular target: T2, tPA (Homo sapiens, UniProt P00750); test: ELISA, binding of β2GPI to immobilized tPA
T2 construct: purchased Boehringer-Ingelheim (Actilyse, Alteplase)
Experimental: as §1

[4] = system: anti-β2GPI auto-antibodies; test: Interference with binding of anti-β2GPI autoantibodies to immobilized β2GPI; design: species or system human; conditions: antibodies from Anti-phospholipid syndrome patients
Experimental: When plasma derived β2GPI is coated onto hydrophilic ELISA plates, anti-β2GPI auto-antibodies isolated from plasma of antiphospholipid syndrome auto-immune patients can bind^14. To study the influence of co-incubations of the coated β2GPI with the antibodies together with plasma β2GPI or recombinant β2GPI, concentration series of β2GPI were added to the patient antibodies. Subsequently, binding of the antibodies to coated β2GPI was determined.

[5] = ThT fluorescence of CpG-ODN-protein mixtures; type: physicochemical; conditions: 1 mg ml^−1 protein exposed to 21.4 μg ml^−1 CPG-ODN (FIG. 4F)
Experimental: (§2) Fluorescence of ThT-protein/peptide adducts was measured as follows. […] Fluorescence was measured at 485 nm upon excitation at 435 nm. Background signals from buffer, buffer with ThT and protein/peptide solution without ThT were subtracted from corresponding measurements with protein solution incubated with ThT. […] Fluorescence was measured in triplicate on a Hitachi F-4500 fluorescence spectrophotometer (Ltd., Tokyo, Japan).
Enhancement of ThT fluorescence was measured similarly as described above. […]

[6] = molecular target: T2, tPA; test: Plasminogen-activation assay (tPA-mediated Plg to Pls, S-2251); type: biochemical; conditions: 100 μg ml^−1 protein
Experimental: Plasmin (Pls) activity was assayed as described^7. Peptides and proteins that were tested for their stimulatory ability were regularly used at 100 μg ml^−1. […] Chromogenic substrate S-2251 (Chromogenix, Instrumentation Laboratory SpA, Milano, Italy) was used to measure Pls activity. Conversion of zymogen factor XII (#233490, Calbiochem, EMD Biosciences, Inc., San Diego, Calif.) to proteolytically active factor XII (factor XIIa) was assayed by measurement of the conversion of chromogenic substrate Chromozym-PK (Roche Diagnostics, Almere, The Netherlands) by kallikrein. Chromozym-PK was used at a concentration of 0.3 mM. Factor XII, human plasma prekallikrein (#529583, Calbiochem) and human plasma cofactor high-molecular weight kininogen (#422686, Calbiochem) were used at concentrations of 1 μg ml^−1. […] Assays were performed using microtiter plates (Costar, Cambridge, Mass., USA). Peptides and proteins were tested for their ability to activate factor XII. […] The conversion of Chromozym-PK was recorded kinetically at 37° C. for at least 60 minutes. […] With S-2222, activation of factor XII in plasma was measured, using 60% v/v plasma, diluted with substrate and H2O with or without potential cofactor. Furthermore, auto-activation of factor XII was measured by incubating 53 μg ml^−1 purified factor XII in 50 mM Tris-HCl buffer pH 7.5 with 1 mM EDTA and 0.001% v/v Triton-X100, with S-2222 and H2O with or without potential cofactor.
Formulated protein therapeutics were obtained from the local hospital pharmacy and were used as supplied by the manufacturers. […] Enhancement in fluorescence of ThT and Congo red was measured with all formulated protein therapeutics. […]
To prepare structurally altered ovalbumin (OVA) with amyloid cross-β structure conformation, purified OVA (Sigma, A-7641, lot 071k7094) was heated to 85° C. […] Native OVA (nOVA) and heat-denatured OVA (dOVA) were tested in the ThT fluorescence assay and in the Plg-activation assay. In the fluorescence assay and in the Plg-activation assay, 25 and 100 μg ml^−1 nOVA and dOVA were tested, respectively. […]

[7] = ThT fluorescence of LPS-protein mixtures; type: physicochemical; conditions: 1 mg ml^−1 protein exposed to 600 μg ml^−1 LPS (FIG. 4C)
Experimental: as §2
Subsequently, the ability to enhance ThT fluorescence was determined with 40× diluted solution, as described above. […]

T2 sequence (P00750 36-562): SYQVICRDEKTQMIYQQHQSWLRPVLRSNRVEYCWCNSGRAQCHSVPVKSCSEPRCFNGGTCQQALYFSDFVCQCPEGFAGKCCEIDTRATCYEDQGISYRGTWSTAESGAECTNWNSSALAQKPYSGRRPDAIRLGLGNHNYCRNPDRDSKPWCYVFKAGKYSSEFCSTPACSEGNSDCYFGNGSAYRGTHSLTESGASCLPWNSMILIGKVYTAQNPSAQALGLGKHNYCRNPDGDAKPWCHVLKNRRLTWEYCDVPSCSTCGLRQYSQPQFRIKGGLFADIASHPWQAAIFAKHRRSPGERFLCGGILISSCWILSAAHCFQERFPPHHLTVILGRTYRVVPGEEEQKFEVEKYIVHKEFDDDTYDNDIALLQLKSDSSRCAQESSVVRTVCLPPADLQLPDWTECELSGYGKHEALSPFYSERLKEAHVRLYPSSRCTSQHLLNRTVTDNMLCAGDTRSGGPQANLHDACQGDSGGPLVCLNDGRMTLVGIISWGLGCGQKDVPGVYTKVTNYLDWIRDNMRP

- binding to factor XII [1]: not bind
- binding to tPA [3]: not bind
- inhibition of binding of anti-β2GPI auto-antibodies to immobilized β2GPI [4]: minor effect on antibody binding
B1: plasma β2GPI: β2-glycoprotein I purified from fresh human plasma (protein)
chain: GRTCPKPDDLPFSTVVPLKTFYEPGEEITYSCKPGYVSRGGMRKFICPLTGLWPINTLKCTPRVCPFAGILENGAVRYTTFEYPNTISFSCNTGFYLNGADSAKCTEEGKWSPELPVCAPIICPPPSIPTFATLRVYKPSAGNNSLYRDTAVFECLPQHAMFGNDTITCTTHGNWTKLPECREVKCPFPSRPDNGFVNYPAKPTLYYKDKATFGCHDGYSLDGPEEIECTKLGNWSAMPSCKASCKVPVKKATVVYQGERVKIQEKFKNGMLHGDKVSFFCKNKEKKCSYTEDAQCIDGTIEVPKCFKEHSSLAFWKTDASDVKPC
- ThT fluorescence after exposure to CL vesicles or DXS [2]: increased fluorescence of ThT
- increased ThT fluorescence [5]: ~2 factor
- stimulation of tPA-mediated conversion of Plg to Pls [6]: not
- ThT fluorescence enhancement [7]: ~2 times
